T1: human GPA33 expressed on CHO-K1 cells (hGPA33-expressing cells co-expressing GFP) (human, UniProt Q99795 22-319)
T1 construct: whole, on cells; CHO-K1 transfected with an hGPA33 expression vector (ORIGENE) co-expressing GFP
T1 sequence (looked up): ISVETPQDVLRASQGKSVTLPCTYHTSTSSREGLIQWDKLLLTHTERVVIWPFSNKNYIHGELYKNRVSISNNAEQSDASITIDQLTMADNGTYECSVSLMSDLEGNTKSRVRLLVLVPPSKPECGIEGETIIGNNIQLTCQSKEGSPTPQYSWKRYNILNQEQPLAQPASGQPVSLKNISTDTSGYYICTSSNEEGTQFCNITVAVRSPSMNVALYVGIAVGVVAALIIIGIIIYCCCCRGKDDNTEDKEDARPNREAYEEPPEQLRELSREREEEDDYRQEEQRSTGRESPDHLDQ

T2: mouse GPA33 expressed on CHO-K1 cells (mGPA33-expressing cells) (mouse, UniProt Q9JKA5 22-319)
T2 construct: whole, on cells
T2 sequence (looked up): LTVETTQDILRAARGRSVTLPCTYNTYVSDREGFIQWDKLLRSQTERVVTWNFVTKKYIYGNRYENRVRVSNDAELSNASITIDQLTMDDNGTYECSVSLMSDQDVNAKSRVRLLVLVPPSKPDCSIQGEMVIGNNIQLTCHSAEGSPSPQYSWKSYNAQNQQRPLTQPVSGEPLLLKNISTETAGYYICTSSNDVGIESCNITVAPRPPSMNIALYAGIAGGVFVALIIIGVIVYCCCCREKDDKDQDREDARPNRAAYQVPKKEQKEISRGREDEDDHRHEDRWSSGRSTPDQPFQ

B1: 2RC28-Cys anti-GPA33 scFv (Cys-containing sequence, His tag and Myc tag at the C-terminal side), expressed in Escherichia coli (scFv)
scFv: EVQLVESGGGLVKPGGSLRLSCAASGFTFSSYSMNWVRQAPGKGLEWVSSISRDSTYIYYADSVKGRFTISRDNAKNSLYLQMNSLRAEDTAVYYCAREGVAGAFDIWGQGTMVTVSSGGGGSGGGGSGSTGSAIQLTQSPSSLSASVGDRVTITCRASQSISSYLNWYQQKPGKAPKLLIYIASSLQSGVPSRFSGSGSGTDFTLTISSLQPEDFATYYCQQSYNTWTFGQGTKVEIKAACTSAHHHHHHGAAEQKLISEEDLNGAA
notes: Periplasmic expression in E. coli HB2151, purified on a His tag column; also called 2RC28 scFv; anti-GPA33 single chain Fv-His
B2: R1CRD-hFcm-tCAP-G17: conjugate of azidized R1CRD-Fcm and DBCO-G17 scFv by tCAP and click reaction (conjugate)
chain: SRGIKGKRQRRISAEGSQACAKGCELCSEVNGCLKCSPKLFILLERNDIRQVGVCLPSCPPGYFDARNPDMNKCIKCKIEHCEACFSHNFCTKCKEGLYLHKGRCYPACPEGSSAANGTMECSSPAEPKSADKTHTCPPCPAPEAEGAPSVFLFPPKPKDTLMISRTPEVTCVVVDVSHEDPEVKFNWYVDGVEVHNAKTKPREEQYNSTYRVVSVLTVLHQDWLNGKEYKCAVSNKALPASIEKTISKAKGQPREPQVYTLPPSREEMTKNQVSLTCLVKGFYPSDIAVEWESNGQPENNYKTTPPVLDSDGSFFLYSKLTVDKSRWQQGNVFSCSVMHEALHNHYTQKSLSLSPGK
scFv: QMQLVQSGGGLVKPGGSLRLSCAASGFTFSSYNMNWVRQAPGKGLEWVSSISSSGDFMYYADSVKGRFTISRDNAKNSLYLQMSSLRAEDTAVYYCAREGPGTPFDYWGQGTLVTVSSGGGGSGGGGSGSTGSAIQLTQSPSSLSASVGDRVTITCRASQSISSFLNWYQHKPGKAPKLLIYVASSLQSGVPSRFSGSGSGTDFTLTISSLQPEDFATYYCQQSHNTPYTFGQGTKLEIKEPRTPRPCLVPRGSHHHHHHGA

Key:
[1] = target: T1, human GPA33 expressed on CHO-K1 cells …; assay: FACS, 0.1 µg scFv on GPA33-expressing CHO-K1 cells, anti-His-biotin and SA-PE detection
[2] = target: T2, mouse GPA33 expressed on CHO-K1 cells …; assay: as above
Wnt/β-catenin signal [3] = assay: Wnt/β-catenin reporter EC50 in 293STF cells expressing GPA33; type: cell-based, human
Method: (§1) The Wnt/β-catenin signal promoting activity of the anti-GPA33 antibody scFv-Rspo fragment fusion recombinant prepared in Example 18 was measured as follows. ONE-Glo™ + Tox Luciferase Reporter and Cell Viability Assay (Promega) was used for the measurement. […] The cells into which each vector was introduced were cultured for 2 days in DMEM medium containing 10% FBS (Nichirei), and then the cells were collected and seeded at 100 µL/well on a CulturPlate-96 (PerkinElmer). The next day, 100 µL of (1) control medium or (2) medium containing recombinant Rspo1FL-Fc or various anti-GPA33 antibody scFv-Rspo fragment fusion recombinant proteins prepared in Example 10 (10-fold serial dilution between 10000 and 0.001 ng/mL, final concentration 5000 to […]) was added to each well. […] The fluorescence value was measured using a Microplate Reader SH-9000 (CORONA). 100 µL of ONE-Glo (trademark) Reagent (Promega) was added to the plate and incubated at room temperature for 3 min, after which the luminescence value was measured using a NIVO microplate reader (PerkinElmer). […] Samples with low activity for which the EC50 value could not be determined were marked NC. […]
(§2) The Wnt/β-catenin signal promoting activity of the anti-GPA33 antibody scFv-Rspo fragment-Fc conjugate R1CRD-hFcm-tCAP-G17 prepared in Example 19 was measured as shown in Example 20. […]

Wnt/β-catenin signal [4] = assay: Wnt/β-catenin reporter EC50 in 293STF cells expressing MOG; type: cell-based, human; details: NC = low activity, EC50 could not be determined (taken as >30 nM for the ratio)
Method: as §1, §2

[5] = tested on: Mouse small intestinal organoids; assay: Mouse small intestinal organoid culture; type: cell-based; design: key: those in which clear proliferation was observed are indicated with ○; those in which proliferation was observed but to a weak extent are indicated with △; those in which no proliferation was observed are indicated with ×
Method: Mouse small intestinal organoid culture using anti-GPA33 antibody scFv-Rspo fragment fusion (Example 18) and anti-GPA33 antibody scFv-Rspo fragment-Fc conjugate (Example 19) was performed as shown below. Mouse small intestinal organoids (VERITAS ST-70931) were maintenance cultured in ENR medium obtained by adding 2 µg/mL of the recombinant Rspo1FL-Fc prepared in Example 10 to EN medium (DMEM/F-12 containing penicillin/streptomycin, 10 mM HEPES, GlutaMAX, 1xN2, 1xB27 (all Gibco), 1 mM N-acetylcysteine (FUJIFILM Wako Pure Chemical), 50 ng/mL mouse EGF (Gibco), and 100 ng/mL mouse Noggin (PEPROTECH)), or ENR+WA medium (DMEM/F-12 containing penicillin/streptomycin, 10 mM HEPES, GlutaMAX, 1xN2, 1xB27 (all Gibco), […] N-acetylcysteine (FUJIFILM Wako Pure Chemical), 50 ng/mL mouse EGF (Gibco), and 100 ng/mL mouse Noggin (PEPROTECH), 10% Afamin/Wnt3a CM (MBL), and 500 nM A-83-01 (FUJIFILM Wako Pure Chemical)). Mouse small intestinal organoids were collected with Gentle Cell Dissociation Reagent (STEMCELL), resuspended in EN medium and Matrigel (Corning), and seeded onto 48-well plates. 250 µL of (1) EN medium, (2) EN medium containing recombinant Rspo1FL-Fc (20 ng/mL or 1 µg/mL) prepared in Example 10, or (3) EN medium containing anti-GPA33 antibody scFv-Rspo fragment fusion or anti-GPA33 antibody scFv-Rspo fragment-Fc conjugate ([…]) was added to each well. The medium was changed once every three days, and the cells were cultured for six days.
Comparing organoids on the first day (Day 1) and the fifth day (Day 5) after seeding, those in which clear proliferation was observed are indicated with ○, those in which proliferation was observed but to a weak extent are indicated with △, and those in which no proliferation was observed are indicated with ×. Samples that were not evaluated are indicated with ND.

Molecule	binding result [1]	binding result [2]	EC50 (Wnt/β-catenin signal [3]; 293STF cells expressing GPA33, Afamin/Wnt3a 883 ng/mL, 18 hr)	EC50(MOG)/ EC50(GPA33) (Wnt/β-catenin signal [3]; ratio, NC assumed >30 nM)	EC50 (Wnt/β-catenin signal [4])	organoid proliferation (Day 1 vs Day 5) ([5]; 0.2 ng/ml)	organoid proliferation (Day 1 vs Day 5) ([5]; 0.8 ng/ml)	organoid proliferation (Day 1 vs Day 5) ([5]; 1.4 ng/ml)	organoid proliferation (Day 1 vs Day 5) ([5]; 2 ng/ml)	organoid proliferation (Day 1 vs Day 5) ([5]; 20 ng/ml)	organoid proliferation (Day 1 vs Day 5) ([5]; 100 ng/ml (conjugate section head, or cells marked *))	organoid proliferation (Day 1 vs Day 5) ([5]; 1000 ng/ml)
B1	binds	binds										
B2			0.085 nM	47.53	4.04 nM	×	×	×	×	Δ	○	○

— EP4636087A1, “ANTI-GPA33 ANTIBODY AND UTILIZATION THEREOF” (Kagoshima University, priority 2022, dated 2024)
